In assay [1] the target is T1, human integrin αvβ6 (soluble, construct not stated), P06756;P18564.
T1 chain 1: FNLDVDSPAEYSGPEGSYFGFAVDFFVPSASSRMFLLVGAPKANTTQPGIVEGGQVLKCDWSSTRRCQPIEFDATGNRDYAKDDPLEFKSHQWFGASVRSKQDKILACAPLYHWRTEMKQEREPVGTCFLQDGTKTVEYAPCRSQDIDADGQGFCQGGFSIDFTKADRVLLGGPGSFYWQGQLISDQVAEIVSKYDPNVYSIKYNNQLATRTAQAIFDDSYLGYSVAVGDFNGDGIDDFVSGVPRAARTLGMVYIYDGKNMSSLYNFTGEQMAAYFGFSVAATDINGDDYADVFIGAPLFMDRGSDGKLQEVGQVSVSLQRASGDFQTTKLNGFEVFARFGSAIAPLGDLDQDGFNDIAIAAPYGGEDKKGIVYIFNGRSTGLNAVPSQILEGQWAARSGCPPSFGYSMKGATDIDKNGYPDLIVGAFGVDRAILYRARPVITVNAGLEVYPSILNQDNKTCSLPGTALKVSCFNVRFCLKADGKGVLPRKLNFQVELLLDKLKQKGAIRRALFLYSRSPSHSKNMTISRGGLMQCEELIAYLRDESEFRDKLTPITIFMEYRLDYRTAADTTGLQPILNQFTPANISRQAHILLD
T1 chain 2: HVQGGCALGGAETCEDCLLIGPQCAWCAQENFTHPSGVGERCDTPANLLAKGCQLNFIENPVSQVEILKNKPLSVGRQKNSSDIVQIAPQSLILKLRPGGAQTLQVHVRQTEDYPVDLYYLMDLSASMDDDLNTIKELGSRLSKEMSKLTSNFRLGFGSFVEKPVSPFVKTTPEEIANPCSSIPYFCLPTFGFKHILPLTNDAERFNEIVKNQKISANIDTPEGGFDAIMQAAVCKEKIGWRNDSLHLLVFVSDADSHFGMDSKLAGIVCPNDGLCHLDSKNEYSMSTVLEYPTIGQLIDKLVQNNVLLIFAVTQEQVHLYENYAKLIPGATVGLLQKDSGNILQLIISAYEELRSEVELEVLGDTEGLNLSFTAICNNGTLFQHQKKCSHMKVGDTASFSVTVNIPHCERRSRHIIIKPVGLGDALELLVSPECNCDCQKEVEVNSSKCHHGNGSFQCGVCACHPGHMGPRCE
Put plainly: BLI. To be noted: chain shown with the change;; parent: > 1000 nM.

Assay [2] deals with T2, human integrin αvβ8 (soluble, construct not stated), P06756;P26012.
T2 chain 1: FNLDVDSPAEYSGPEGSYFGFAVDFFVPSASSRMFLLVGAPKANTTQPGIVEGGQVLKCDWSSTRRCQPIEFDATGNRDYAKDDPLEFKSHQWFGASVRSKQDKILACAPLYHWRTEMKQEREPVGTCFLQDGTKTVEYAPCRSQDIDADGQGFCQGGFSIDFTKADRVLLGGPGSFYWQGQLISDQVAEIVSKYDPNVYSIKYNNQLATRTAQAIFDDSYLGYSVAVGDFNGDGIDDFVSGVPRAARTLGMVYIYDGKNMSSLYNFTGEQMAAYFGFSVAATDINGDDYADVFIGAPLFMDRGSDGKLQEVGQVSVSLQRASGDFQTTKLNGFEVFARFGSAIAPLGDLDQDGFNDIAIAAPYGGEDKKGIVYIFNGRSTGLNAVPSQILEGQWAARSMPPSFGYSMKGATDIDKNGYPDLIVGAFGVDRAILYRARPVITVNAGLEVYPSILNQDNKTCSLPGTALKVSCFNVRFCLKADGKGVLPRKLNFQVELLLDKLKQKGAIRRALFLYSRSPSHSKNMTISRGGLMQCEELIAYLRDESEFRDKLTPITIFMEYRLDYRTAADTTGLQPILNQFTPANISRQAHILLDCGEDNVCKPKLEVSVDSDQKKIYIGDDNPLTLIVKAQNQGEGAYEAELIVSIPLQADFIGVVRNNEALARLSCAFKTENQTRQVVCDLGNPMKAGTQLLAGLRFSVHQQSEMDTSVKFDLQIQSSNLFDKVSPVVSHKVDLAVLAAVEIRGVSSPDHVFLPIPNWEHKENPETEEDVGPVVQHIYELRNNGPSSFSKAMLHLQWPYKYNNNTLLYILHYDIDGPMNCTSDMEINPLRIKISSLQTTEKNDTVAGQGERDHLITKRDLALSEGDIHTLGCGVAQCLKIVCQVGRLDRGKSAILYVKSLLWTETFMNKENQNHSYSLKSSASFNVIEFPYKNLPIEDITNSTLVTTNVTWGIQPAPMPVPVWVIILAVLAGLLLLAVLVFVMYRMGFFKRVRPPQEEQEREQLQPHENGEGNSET
T2 chain 2: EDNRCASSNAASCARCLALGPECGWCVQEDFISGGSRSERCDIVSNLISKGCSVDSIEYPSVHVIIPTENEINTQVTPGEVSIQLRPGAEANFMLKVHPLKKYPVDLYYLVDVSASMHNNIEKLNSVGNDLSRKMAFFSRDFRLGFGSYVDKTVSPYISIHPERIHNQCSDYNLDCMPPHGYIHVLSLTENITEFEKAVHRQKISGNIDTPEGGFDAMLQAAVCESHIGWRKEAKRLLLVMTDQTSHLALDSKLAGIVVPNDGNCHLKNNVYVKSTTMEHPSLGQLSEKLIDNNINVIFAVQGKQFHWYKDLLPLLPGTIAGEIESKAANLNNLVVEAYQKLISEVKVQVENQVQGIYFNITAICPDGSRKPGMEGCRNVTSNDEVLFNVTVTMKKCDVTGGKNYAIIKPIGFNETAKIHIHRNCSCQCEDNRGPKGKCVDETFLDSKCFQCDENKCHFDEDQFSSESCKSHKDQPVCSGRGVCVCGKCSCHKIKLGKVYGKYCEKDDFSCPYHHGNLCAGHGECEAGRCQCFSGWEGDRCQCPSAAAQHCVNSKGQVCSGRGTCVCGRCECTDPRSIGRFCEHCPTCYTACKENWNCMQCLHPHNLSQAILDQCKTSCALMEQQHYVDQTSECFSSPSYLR
In words: BLI. To be noted: chain shown with the change;; parent: 1.9 nM.

Results on four molecules are retold here after article PMC10500007.

Substitutions are numbered along the chain they refer to. Names may count otherwise.

B1: B8_BP_dslf M13L; Y16I (protein)
chain: TKCVVRFNFRGDLAVIALKAVKDHLKKEGPHWNITTHNDDEVYLVVRGIHESDAKRIAKWVESTIPGISVETQCD
In the case of B1, the values for the Kd in assay [1] and in assay [2] were 0.7 nM and 0.3 nM, respectively.

B2: B8_BP_dslf M13L; V15T; Y16I (protein)
chain: B1 chain with V15T
With B2, the Kd in assay [2] was determined as 0.3 nM.

B3: B8_BP_dslf Y16I (protein)
chain: B1 chain with L13M
For the molecule B3, the Kd in assay [2] was 0.2 nM.

B4: B8_BP_dslf V15T; Y16I (protein)
chain: B1 chain with L13M, V15T
With B4, in assay [2], the Kd is 0.1 nM.

What is called Kd is the free concentration of one partner at which half of the binding sites on the other are occupied at equilibrium, for simple one-to-one binding.
